This is an account of results in article PMC9150345.

Test [1] addresses AntpΔN-hTBP pair (VC-AntpΔN with VN-TBP) as acceptor in BiFC-FRET (Drosophila | human) (UniProt P02833).
The target of test [2] is Antp^AAAA-hTBP pair (VC-Antp YPWM mutant with VN-TBP) as acceptor in BiFC-FRET (Drosophila | human) (UniProt P02833).
Test [3] concerns the target Antp^AAAA, Antp with the YPWM motif substituted by alanines, fused to the C-terminal fragment of Venus (Drosophila), P02833.
The target in test [4] is Antp^I32A−H36A-hTBP pair (VC-Antp HD helix 2 mutant with VN-TBP) as acceptor in BiFC-FRET (Drosophila | human) (UniProt P20226).
Chain of Antp^I32A−H36A-hTBP pair (VC-Antp HD helix 2 mutant with VN-TBP) as acceptor in BiFC-FRET (Drosophila | human) (P20226 whole entry, looked up, stated change not applied, tested part not stated): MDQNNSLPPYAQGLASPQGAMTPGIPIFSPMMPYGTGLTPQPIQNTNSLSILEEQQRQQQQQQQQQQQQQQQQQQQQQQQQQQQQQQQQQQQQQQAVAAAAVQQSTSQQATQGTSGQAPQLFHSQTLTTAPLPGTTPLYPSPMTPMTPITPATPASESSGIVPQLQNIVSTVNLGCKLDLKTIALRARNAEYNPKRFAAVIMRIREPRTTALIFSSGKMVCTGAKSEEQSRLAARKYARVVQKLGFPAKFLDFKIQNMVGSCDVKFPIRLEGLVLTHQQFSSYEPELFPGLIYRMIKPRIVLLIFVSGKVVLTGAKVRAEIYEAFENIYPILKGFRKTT

Chain of Antp^AAAA, Antp with the YPWM motif substituted by alanines, fused to the C-terminal fragment of Venus (Drosophila), P02833 (P02833 whole entry, the tested form may be a part): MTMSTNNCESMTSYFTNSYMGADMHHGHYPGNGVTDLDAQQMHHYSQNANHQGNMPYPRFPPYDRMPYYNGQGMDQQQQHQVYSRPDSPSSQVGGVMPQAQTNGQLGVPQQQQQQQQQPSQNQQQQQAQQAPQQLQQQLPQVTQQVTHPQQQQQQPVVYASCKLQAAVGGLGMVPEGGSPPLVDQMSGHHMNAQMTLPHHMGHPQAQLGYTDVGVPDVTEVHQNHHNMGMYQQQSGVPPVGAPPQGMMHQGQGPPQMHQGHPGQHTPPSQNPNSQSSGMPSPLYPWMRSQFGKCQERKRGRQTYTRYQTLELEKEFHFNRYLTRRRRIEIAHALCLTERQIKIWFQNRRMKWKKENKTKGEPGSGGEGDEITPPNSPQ
Chain of Antp^AAAA-hTBP pair (VC-Antp YPWM mutant with VN-TBP) as acceptor in BiFC-FRET (Drosophila | human) (P02833 whole entry, change not shown, chain 1 of 2, the tested form may be a part): as the sequence (P02833 whole entry, the tested form may be a part) above
Chain of Antp^AAAA-hTBP pair (VC-Antp YPWM mutant with VN-TBP) as acceptor in BiFC-FRET (Drosophila | human) (P20226 whole entry, change not shown, chain 2 of 2, further chain, the tested form may be a part): as the sequence (P20226 whole entry, looked up, stated change not applied, tested part not stated) above
Chain of AntpΔN-hTBP pair (VC-AntpΔN with VN-TBP) as acceptor in BiFC-FRET (Drosophila | human) (P02833 270-378, stated change not applied, chain 1 of 2): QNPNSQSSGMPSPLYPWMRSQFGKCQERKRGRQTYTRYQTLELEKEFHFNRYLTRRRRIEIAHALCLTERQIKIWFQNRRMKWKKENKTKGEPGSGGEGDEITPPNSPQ
Chain of AntpΔN-hTBP pair (VC-AntpΔN with VN-TBP) as acceptor in BiFC-FRET (Drosophila | human) (P20226 whole entry, stated change not applied, chain 2 of 2, further chain): as the sequence (P20226 whole entry, looked up, stated change not applied, tested part not stated) above

B1: Extradenticle (Exd) (144–376) fused to ECFP (domain or fragment)
chain: DGADNAIEHSDYRAKLAQIRQIYHQELEKYEQACNEFTTHVMNLLREQSRTRPITPKEIERMVQIIHKKFSSIQMQLKQSTCEAVMILRSRFLDARRKRRNFSKQASEILNEYFYSHLSNPYPSEEAKEELARKCGITVSQVSNWFGNKRIRYKKNIGKAQEEANLYAAKKAAGASPYSMAGPPSGTTTPMMSPAPPQDSMGYPMGSGGYDQQQPYDNSMGGYDPNLHQDLSP
For B1, the transactivation on pGLH11 of AntpΔN with TBP and Exd, percent of Antp alone (Fig. 5C) in test [1] was 65%. In test [2], this molecule had a transactivation on pGLH11 of Antp^AAAA with TBP and Exd, percent of Antp alone (Fig. 5C) of 70%.

B2: Extradenticle (Exd) (144–376) fused to ECFP, P40427 144-376 (domain or fragment)
chain: B1 chain
Molecule B2 returned a transactivation on pGLH11 of Antp^AAAA with Exd, percent of Antp alone (Fig. 5C) in test [3] of 97%.

B3: TFIIEβ fused to ECFP (natural protein)
chain: MDPALLREREAFKKRAMATPTVEKKSKPDRPAPPPPSDDSRRKMRPPNAPRLDATTYKTMSGSSQYRFGVLAKIVKFMRTRHQDGDDHPLTIDEILDETNQLDIGQSVKNWLASEALHNNPKVEASPCGTKFSFKPVYKIKDGKTLMRLLKQHDLKGLGGILLDDVQESLPHCEKVLKNRSAEILFVVRPIDKKKILFYNDRTANFSVDDEFQKLWRSATVDAMDDAKIDEYLEKQGIRSMQDHGLKKAIPKRKKAANKKRQFKKPRDNEHLADVLEVYEDNTLTLKGVNPT
Regarding B3, in test [4], the transactivation on pGLH11 of Antp^I32A−H36A with TBP and TFIIEβ, percent of Antp alone (Fig. 5B) was 72%.
